Test results: paper PMC12416549 (2024)

T1: TNFR1 (Homo sapiens, UniProt P19438)
T1 chain: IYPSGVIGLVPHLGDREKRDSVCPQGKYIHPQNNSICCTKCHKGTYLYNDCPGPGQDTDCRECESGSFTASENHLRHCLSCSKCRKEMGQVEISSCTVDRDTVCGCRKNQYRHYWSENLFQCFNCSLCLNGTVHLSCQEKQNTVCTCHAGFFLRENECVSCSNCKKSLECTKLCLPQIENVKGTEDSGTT


Target: T1, TNFR1
Experiment: yeast display SC50

| apparent Kd (screen) | Binder |
| --- | --- |
| 2.25 nM | Y101M (designed binder) SMEEEVEKAAKEYEKKKKEAIEKHLEKLKAKDKEAAERFLKELEEAAKEYAKDEAKTMSEEEAKRRAKKYKEKVLLSELSEEEQKEIKEAEEKLVRTILKMVEEAAK |
| 5.84 nM | V95G (designed binder) SMEEEVEKAAKEYEKKKKEAIEKHLEKLKAKDKEAAERFLKELEEAAKEYAKDEAKTMSEEEAKRRAKKYKEKVLLSELSEEEQKEIKEAEEKLGRTILKYVEEAAK |
| 1.69 nM | Y13Q (designed binder) SMEEEVEKAAKEQEKKKKEAIEKHLEKLKAKDKEAAERFLKELEEAAKEYAKDEAKTMSEEEAKRRAKKYKEKVLLSELSEEEQKEIKEAEEKLVRTILKYVEEAAK |
| 1.86 nM | K107H (designed binder) SMEEEVEKAAKEYEKKKKEAIEKHLEKLKAKDKEAAERFLKELEEAAKEYAKDEAKTMSEEEAKRRAKKYKEKVLLSELSEEEQKEIKEAEEKLVRTILKYVEEAAH |
| 1.16 nM | K27L (designed binder) SMEEEVEKAAKEYEKKKKEAIEKHLELLKAKDKEAAERFLKELEEAAKEYAKDEAKTMSEEEAKRRAKKYKEKVLLSELSEEEQKEIKEAEEKLVRTILKYVEEAAK |
| 1.4 nM | K8D (designed binder) SMEEEVEDAAKEYEKKKKEAIEKHLEKLKAKDKEAAERFLKELEEAAKEYAKDEAKTMSEEEAKRRAKKYKEKVLLSELSEEEQKEIKEAEEKLVRTILKYVEEAAK |
| 1.54 nM | K8E (designed binder) SMEEEVEEAAKEYEKKKKEAIEKHLEKLKAKDKEAAERFLKELEEAAKEYAKDEAKTMSEEEAKRRAKKYKEKVLLSELSEEEQKEIKEAEEKLVRTILKYVEEAAK |
| 0.405 nM | A20L (designed binder) SMEEEVEKAAKEYEKKKKELIEKHLEKLKAKDKEAAERFLKELEEAAKEYAKDEAKTMSEEEAKRRAKKYKEKVLLSELSEEEQKEIKEAEEKLVRTILKYVEEAAK |
| 12.5 nM | A55P (designed binder) SMEEEVEKAAKEYEKKKKEAIEKHLEKLKAKDKEAAERFLKELEEAAKEYAKDEPKTMSEEEAKRRAKKYKEKVLLSELSEEEQKEIKEAEEKLVRTILKYVEEAAK |
| 2.73 nM | E72H (designed binder) SMEEEVEKAAKEYEKKKKEAIEKHLEKLKAKDKEAAERFLKELEEAAKEYAKDEAKTMSEEEAKRRAKKYKHKVLLSELSEEEQKEIKEAEEKLVRTILKYVEEAAK |
| 0.49 nM | A9V (designed binder) SMEEEVEKVAKEYEKKKKEAIEKHLEKLKAKDKEAAERFLKELEEAAKEYAKDEAKTMSEEEAKRRAKKYKEKVLLSELSEEEQKEIKEAEEKLVRTILKYVEEAAK |
| 0.653 nM | A105P (designed binder) SMEEEVEKAAKEYEKKKKEAIEKHLEKLKAKDKEAAERFLKELEEAAKEYAKDEAKTMSEEEAKRRAKKYKEKVLLSELSEEEQKEIKEAEEKLVRTILKYVEEPAK |
| 1.4 nM | K100V (designed binder) SMEEEVEKAAKEYEKKKKEAIEKHLEKLKAKDKEAAERFLKELEEAAKEYAKDEAKTMSEEEAKRRAKKYKEKVLLSELSEEEQKEIKEAEEKLVRTILVYVEEAAK |
| 4.83 nM | E42P (designed binder) SMEEEVEKAAKEYEKKKKEAIEKHLEKLKAKDKEAAERFLKPLEEAAKEYAKDEAKTMSEEEAKRRAKKYKEKVLLSELSEEEQKEIKEAEEKLVRTILKYVEEAAK |
| 11.4 nM | A67Q (designed binder) SMEEEVEKAAKEYEKKKKEAIEKHLEKLKAKDKEAAERFLKELEEAAKEYAKDEAKTMSEEEAKRRQKKYKEKVLLSELSEEEQKEIKEAEEKLVRTILKYVEEAAK |
| 3.63 nM | E60N (designed binder) SMEEEVEKAAKEYEKKKKEAIEKHLEKLKAKDKEAAERFLKELEEAAKEYAKDEAKTMSNEEAKRRAKKYKEKVLLSELSEEEQKEIKEAEEKLVRTILKYVEEAAK |
| 5.31 nM | K17D (designed binder) SMEEEVEKAAKEYEKKDKEAIEKHLEKLKAKDKEAAERFLKELEEAAKEYAKDEAKTMSEEEAKRRAKKYKEKVLLSELSEEEQKEIKEAEEKLVRTILKYVEEAAK |
| 0.446 nM | E82K (designed binder) SMEEEVEKAAKEYEKKKKEAIEKHLEKLKAKDKEAAERFLKELEEAAKEYAKDEAKTMSEEEAKRRAKKYKEKVLLSELSEKEQKEIKEAEEKLVRTILKYVEEAAK |
| 2.73 nM | R38S (designed binder) SMEEEVEKAAKEYEKKKKEAIEKHLEKLKAKDKEAAESFLKELEEAAKEYAKDEAKTMSEEEAKRRAKKYKEKVLLSELSEEEQKEIKEAEEKLVRTILKYVEEAAK |
| 2.25 nM | L94G (designed binder) SMEEEVEKAAKEYEKKKKEAIEKHLEKLKAKDKEAAERFLKELEEAAKEYAKDEAKTMSEEEAKRRAKKYKEKVLLSELSEEEQKEIKEAEEKGVRTILKYVEEAAK |
| 0.49 nM | K33T (designed binder) SMEEEVEKAAKEYEKKKKEAIEKHLEKLKAKDTEAAERFLKELEEAAKEYAKDEAKTMSEEEAKRRAKKYKEKVLLSELSEEEQKEIKEAEEKLVRTILKYVEEAAK |
| 7.07 nM | L76R (designed binder) SMEEEVEKAAKEYEKKKKEAIEKHLEKLKAKDKEAAERFLKELEEAAKEYAKDEAKTMSEEEAKRRAKKYKEKVLRSELSEEEQKEIKEAEEKLVRTILKYVEEAAK |
| 13.8 nM | A47L (designed binder) SMEEEVEKAAKEYEKKKKEAIEKHLEKLKAKDKEAAERFLKELEEALKEYAKDEAKTMSEEEAKRRAKKYKEKVLLSELSEEEQKEIKEAEEKLVRTILKYVEEAAK |
| 12.5 nM | E92I (designed binder) SMEEEVEKAAKEYEKKKKEAIEKHLEKLKAKDKEAAERFLKELEEAAKEYAKDEAKTMSEEEAKRRAKKYKEKVLLSELSEEEQKEIKEAEIKLVRTILKYVEEAAK |
| 0.593 nM | E103M (designed binder) SMEEEVEKAAKEYEKKKKEAIEKHLEKLKAKDKEAAERFLKELEEAAKEYAKDEAKTMSEEEAKRRAKKYKEKVLLSELSEEEQKEIKEAEEKLVRTILKYVMEAAK |
| 2.73 nM | K17G (designed binder) SMEEEVEKAAKEYEKKGKEAIEKHLEKLKAKDKEAAERFLKELEEAAKEYAKDEAKTMSEEEAKRRAKKYKEKVLLSELSEEEQKEIKEAEEKLVRTILKYVEEAAK |
